The term stoichiometry N denotes the number of molecules, sites or subunits per partner or assembly.

For test [1], the target named is gp120Sht-LS (clade-A BG505 gp120 fused to lumazine synthase) (HIV-1 clade A BG505 | Aquifex aeolicus). As to the kind of experiment: native gel or EMSA.
Test [2] addresses BG505 SOSIP.664 gp140 trimer (HIV-1 clade A BG505). As to the kind of experiment: SEC; Superdex 200 10/300 GL column, after GNL purification. Background: In gel filtration, larger molecules generally elute earlier.

In test [1], “gp120Sht-LS (clade-A BG505 gp120 fused to lumazine synthase)” had a stoichiometry N of 5.

In turn, BG505 SOSIP.664 gp140 trimer (complex) had a stoichiometry N in test [2] of 3.

The values are drawn from paper PMC4931238.
